Test results as given in patent publication US20150259426A1 (Novartis, published 2015).
Blank lines part the entries; values can stand above or below the binder they belong to.

What was measured:
[1] = target: T1, cell-bound human DR5 (Colo205 and other human cell lines) (human, UniProt O14763 56-440); experiment: cell-based or functional assay
[2] = target: T1, cell-bound human DR5 (Colo205 and other …); experiment: cell-based or functional assay; remark: listed apart in the source
[3] = target: T2, hGITR (human, UniProt Q9Y5U5); experiment: ELISA, receptor ECD from E. coli lysate on His capture plate;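 note: binding specificity screen across TNF receptor superfamily ectodomains, anti-V5 detection as expression reference, primary antibody incubation 1 h at room temperature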
T2 construct: extracellular domain, E. coli lysate captured on a His capture plate; Target named only on the sheet; the construct is not described in the text
T2 sequence (extracellular domain, looked up): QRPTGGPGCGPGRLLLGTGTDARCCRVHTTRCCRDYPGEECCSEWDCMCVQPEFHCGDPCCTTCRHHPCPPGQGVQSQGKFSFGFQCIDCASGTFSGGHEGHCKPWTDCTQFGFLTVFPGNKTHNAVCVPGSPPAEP

[4] = target: T3, TNFR1 extracellular domain (TNFRSF1A, Leu34-Thr211) (UniProt P19438 34-211); experiment: as above
T3 construct: range 34-211; ECD cloned into pBadThioTopo; E. coli lysate on His capture plates
T3 sequence (looked up): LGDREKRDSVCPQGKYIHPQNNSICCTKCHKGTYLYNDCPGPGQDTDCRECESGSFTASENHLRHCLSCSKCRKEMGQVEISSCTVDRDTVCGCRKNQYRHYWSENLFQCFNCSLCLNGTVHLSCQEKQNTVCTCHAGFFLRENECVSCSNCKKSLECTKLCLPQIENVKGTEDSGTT

[5] = target: T4, TNFR3 extracellular domain (TNFRSF3, Pro30-Thr224) (UniProt P36941 30-224); experiment: as above
T4 construct: range 30-224; ECD cloned into pBadThioTopo; E. coli lysate on His capture plates
T4 sequence (P36941 30-224 limits assumed): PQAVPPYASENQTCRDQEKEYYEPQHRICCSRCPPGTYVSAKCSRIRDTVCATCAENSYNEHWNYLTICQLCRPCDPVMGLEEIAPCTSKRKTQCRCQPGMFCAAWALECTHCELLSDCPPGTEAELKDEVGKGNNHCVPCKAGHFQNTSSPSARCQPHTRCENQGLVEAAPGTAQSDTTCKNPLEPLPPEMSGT

[6] = target: T5, OX40 extracellular domain (TNFRSF4, Gly33-Gly212) (UniProt P43489 33-212); experiment: as above
T5 construct: ECD cloned into pBadThioTopo; E. coli lysate on His capture plates
T5 sequence (looked up): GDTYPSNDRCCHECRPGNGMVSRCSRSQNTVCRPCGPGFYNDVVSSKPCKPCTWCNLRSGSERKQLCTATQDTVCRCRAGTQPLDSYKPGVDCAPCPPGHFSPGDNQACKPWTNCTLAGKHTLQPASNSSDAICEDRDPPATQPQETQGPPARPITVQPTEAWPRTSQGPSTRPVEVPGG

[7] = target: T6, CD40 extracellular domain (TNFRSF5, Val18-Leu192) (UniProt P25942 18-192); experiment: as above
T6 construct: range 18-192; ECD cloned into pBadThioTopo; E. coli lysate on His capture plates
T6 sequence (P25942 18-192 limits assumed): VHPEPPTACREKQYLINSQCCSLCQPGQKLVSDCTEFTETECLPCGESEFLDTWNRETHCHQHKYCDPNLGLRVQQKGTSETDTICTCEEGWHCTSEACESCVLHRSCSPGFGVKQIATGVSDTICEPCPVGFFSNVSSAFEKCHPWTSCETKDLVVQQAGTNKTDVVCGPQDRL

[8] = target: T7, FAS extracellular domain (TNFRSF6, Ser20-Gly175) (UniProt P25445 20-175); experiment: as above
T7 construct: ECD cloned into pBadThioTopo; E. coli lysate on His capture plates
T7 sequence (looked up): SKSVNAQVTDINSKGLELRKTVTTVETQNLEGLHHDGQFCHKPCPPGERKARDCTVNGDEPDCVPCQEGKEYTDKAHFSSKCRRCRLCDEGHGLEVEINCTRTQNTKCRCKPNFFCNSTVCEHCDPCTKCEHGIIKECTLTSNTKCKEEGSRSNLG

[9] = target: T8, DcR3 (TNFRSF6B, Val27-Ala176) (UniProt O95407 27-176); experiment: as above
T8 construct: range 27-176; ECD cloned into pBadThioTopo; E. coli lysate on His capture plates
T8 sequence (looked up): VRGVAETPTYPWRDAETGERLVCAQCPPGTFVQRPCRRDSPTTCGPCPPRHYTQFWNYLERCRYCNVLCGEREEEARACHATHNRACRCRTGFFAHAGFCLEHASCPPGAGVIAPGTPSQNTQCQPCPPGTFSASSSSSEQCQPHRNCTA

[10] = target: T9, CD27 extracellular domain (TNFRSF7, Thr21-Ser187) (UniProt P26842 21-187); experiment: as above
T9 construct: range 21-187; ECD cloned into pBadThioTopo; E. coli lysate on His capture plates
T9 sequence (P26842 21-187 limits assumed): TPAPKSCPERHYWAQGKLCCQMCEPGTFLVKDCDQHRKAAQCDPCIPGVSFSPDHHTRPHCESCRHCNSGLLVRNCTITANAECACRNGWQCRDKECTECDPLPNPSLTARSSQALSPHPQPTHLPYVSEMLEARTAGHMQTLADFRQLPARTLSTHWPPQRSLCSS

[11] = target: T10, CD137 extracellular domain (TNFRSF9, Glu19-Ile188) (UniProt Q07011 19-188); experiment: as above
T10 construct: range 19-188; ECD cloned into pBadThioTopo; E. coli lysate on His capture plates
T10 sequence (Q07011 19-188 limits assumed): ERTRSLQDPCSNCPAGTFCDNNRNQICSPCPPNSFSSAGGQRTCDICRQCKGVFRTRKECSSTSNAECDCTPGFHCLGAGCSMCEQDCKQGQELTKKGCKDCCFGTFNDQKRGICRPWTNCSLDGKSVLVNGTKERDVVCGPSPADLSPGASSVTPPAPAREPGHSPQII

[12] = target: T11, DcR2 extracellular domain (TNFRSF10D, Thr57-Thr198) (UniProt Q9UBN6 57-198); experiment: as above
T11 construct: range 57-198; ECD cloned into pBadThioTopo; E. coli lysate on His capture plates
T11 sequence (looked up): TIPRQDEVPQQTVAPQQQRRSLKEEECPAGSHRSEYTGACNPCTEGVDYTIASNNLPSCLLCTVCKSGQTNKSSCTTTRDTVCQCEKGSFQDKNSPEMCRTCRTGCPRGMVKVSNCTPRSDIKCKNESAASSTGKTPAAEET

[13] = target: T12, OPG (TNFRSF11B, Lys17-Ile197) (UniProt O00300 17-197); experiment: as above
T12 construct: range 17-197; ECD cloned into pBadThioTopo; E. coli lysate on His capture plates
T12 sequence (looked up): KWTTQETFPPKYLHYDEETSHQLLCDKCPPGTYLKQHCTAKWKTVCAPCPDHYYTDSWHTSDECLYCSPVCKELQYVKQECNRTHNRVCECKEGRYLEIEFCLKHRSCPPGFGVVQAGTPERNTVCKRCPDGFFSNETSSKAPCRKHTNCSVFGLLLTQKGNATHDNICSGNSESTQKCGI

[14] = target: T13, BAFFR extracellular domain (TNFRSF13C, Met1-Gly64) (UniProt Q96RJ3 1-64); experiment: as above
T13 construct: range 1-64; ECD cloned into pBadThioTopo; E. coli lysate on His capture plates
T13 sequence (Q96RJ3 1-64 limits assumed): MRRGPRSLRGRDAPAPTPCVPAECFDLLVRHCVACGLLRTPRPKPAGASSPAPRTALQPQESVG

[15] = target: cynomolgus DR5-Fc fusion protein (cyno DR5 amino acids 56 to 213 fused with human IgG1 Fc) (cynomolgus; human); experiment: SPR (Biacore), CM5 chip coated with cynomolgus DR5-Fc, 1 to 100 nM NB construct

binding result [3]: no binding (tested: not stated) | binding result [4]: no binding (tested: not stated) | binding result [5]: no binding (tested: not stated) | binding result [6]: no binding (tested: not stated) | binding result [7]: no binding (tested: not stated) | binding result [8]: no binding (tested: not stated) | binding result [9]: no binding (tested: not stated) | binding result [10]: no binding (tested: not stated) | binding result [11]: no binding (tested: not stated) | binding result [12]: no binding (tested: not stated) | binding result [13]: no binding (tested: not stated) | binding result [14]: no binding (tested: not stated) | Kd [15]: < 600 pM
B1: 10F1 tri (trivalent anti-DR5 NB construct) (VHH, not shown: small tags and cut ends)
chain: EVQLVESGGGLVQPGGSLRLSCAASGFTFSRYWMYWVRQAPGKGLEWVSAINSGGGDTYYRDSVRGRFTISRDNFKNTLYLQMNSLKSEDTAVYYCAKAEGPPTFSLIRTMTVDPGAQGTQVTVSSGGGGSGGGGSGGGGSGGGGSGGGGSGGGGSGGGGSEVQLVESGGGLVQPGGSLRLSCAASGFTFSRYWMYWVRQAPGKGLEWVSAINSGGGDTYYRDSVRGRFTISRDNFKNTLYLQMNSLKSEDTAVYYCAKAEGPPTFSLIRTMTVDPGAQGTQVTVSSGGGGSGGGGSGGGGSGGGGSGGGGSGGGGSGGGGSEVQLVESGGGLVQPGGSLRLSCAASGFTFSRYWMYWVRQAPGKGLEWVSAINSGGGDTYYRDSVRGRFTISRDNFKNTLYLQMNSLKSEDTAVYYCAKAEGPPTFSLIRTMTVDPGAQGTQVTVSS
IC50, cell survival, Colo205 [1]: 40.7 pM | IC50, cell survival, A549 [2]: ≥ 20000 pM | IC50, cell survival, ARPE-19 [2]: ≥ 20000 pM | IC50, cell survival, H226 [2]: 20 pM | IC50, cell survival, H2052 [2]: 13 pM | IC50, cell survival, H2122 [2]: 3 pM | IC50, cell survival, Huvec [2]: ≥ 20000 pM | IC50, cell survival, IMR-90 [2]: ≥ 20000 pM | IC50, cell survival, Jurkat [2]: ≥ 20000 pM | IC50, cell survival, M30 [2]: ≥ 20000 pM | IC50, cell survival, MiaPaCa-2 [2]: ≥ 20000 pM | IC50, cell survival, Molt4 [2]: ≥ 20000 pM | IC50, cell survival, Panc-1 [2]: ≥ 20000 pM

binding result [3]: no binding (tested: not stated) | binding result [4]: no binding (tested: not stated) | binding result [5]: no binding (tested: not stated) | binding result [6]: no binding (tested: not stated) | binding result [7]: no binding (tested: not stated) | binding result [8]: no binding (tested: not stated) | binding result [9]: no binding (tested: not stated) | binding result [10]: no binding (tested: not stated) | binding result [11]: no binding (tested: not stated) | binding result [12]: no binding (tested: not stated) | binding result [13]: no binding (tested: not stated) | binding result [14]: no binding (tested: not stated) | Kd [15]: < 90 pM
B2: 4E6 tri (trivalent anti-DR5 NB construct) (VHH)
chain: EVQLVESGGGSVQAGDSLRLSCAASGRTFGSIRVGWFRQTPGKEREFVAAINRNDGTTYYADSVKGRFTISRDNAKNTVYMQMASLKPEDTAVYYCAAGLQYNRSADRVPVGAVYWGQGTQVTVSSGGGGSGGGGSGGGGSGGGGSGGGGSGGGGSGGGGSEVQLVESGGGSVQAGDSLRLSCAASGRTFGSIRVGWFRQTPGKEREFVAAINRNDGTTYYADSVKGRFTISRDNAKNTVYMQMASLKPEDTAVYYCAAGLQYNRSADRVPVGAVYWGQGTQVTVSSGGGGSGGGGSGGGGSGGGGSGGGGSGGGGSGGGGSEVQLVESGGGSVQAGDSLRLSCAASGRTFGSIRVGWFRQTPGKEREFVAAINRNDGTTYYADSVKGRFTISRDNAKNTVYMQMASLKPEDTAVYYCAAGLQYNRSADRVPVGAVYWGQGTQVTVSS
notes: three VHH units in one chain joined by GlySer linkers; not shown: CMYC-HIS6 tag
IC50, cell survival, Colo205 [1]: 37.9 pM | IC50, cell survival, A549 [2]: ≥ 20000 pM | IC50, cell survival, ARPE-19 [2]: ≥ 20000 pM | IC50, cell survival, H226 [2]: 20 pM | IC50, cell survival, H2052 [2]: 6 pM | IC50, cell survival, H2122 [2]: 2 pM | IC50, cell survival, Huvec [2]: ≥ 20000 pM | IC50, cell survival, IMR-90 [2]: ≥ 20000 pM | IC50, cell survival, Jurkat [2]: ≥ 20000 pM | IC50, cell survival, M30 [2]: ≥ 20000 pM | IC50, cell survival, MiaPaCa-2 [2]: 23 pM | IC50, cell survival, Molt4 [2]: ≥ 20000 pM | IC50, cell survival, Panc-1 [2]: ≥ 20000 pM
